Test results from the supplement of paper PMC10065799, “High-throughput profiling of sequence recognition by tyrosine kinases and SH2 domains using bacterial peptide display” (eLife, 2023).
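Further: 11-residue human phosphosite peptides and single-mutation variants displayed on the E. coli surface, counted by deep sequencing, each peptide's frequency after selection divided by its frequency in the unselected input library; frequency after pTyr selection over input frequency; kinase dosed for 20-30% of maximal phosphorylation in three min.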

These sequences were tested against Fyn (UniProt P06241) (assay: phosphorylation enrichment, bacterial display (enrichment ratio); higher = better substrate or ligand; peptides without Tyr show the background).
Fyn, sequence (P06241 whole entry, looked up): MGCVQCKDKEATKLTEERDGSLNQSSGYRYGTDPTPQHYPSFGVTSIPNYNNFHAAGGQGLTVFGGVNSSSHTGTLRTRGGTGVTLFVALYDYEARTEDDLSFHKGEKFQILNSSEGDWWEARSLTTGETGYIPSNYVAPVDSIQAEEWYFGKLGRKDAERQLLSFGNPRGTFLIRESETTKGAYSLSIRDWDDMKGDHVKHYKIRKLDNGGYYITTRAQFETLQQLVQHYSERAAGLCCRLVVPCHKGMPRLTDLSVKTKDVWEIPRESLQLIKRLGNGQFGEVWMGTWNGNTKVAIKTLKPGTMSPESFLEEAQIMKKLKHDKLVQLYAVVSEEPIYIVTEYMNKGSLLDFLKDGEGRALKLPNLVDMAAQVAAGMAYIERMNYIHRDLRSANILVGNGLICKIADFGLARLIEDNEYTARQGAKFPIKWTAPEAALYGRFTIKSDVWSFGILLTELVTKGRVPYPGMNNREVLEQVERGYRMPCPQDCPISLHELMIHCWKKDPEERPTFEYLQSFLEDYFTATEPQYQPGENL
Sequence LKGQVYILGGE [ASS1_Y359_R363G] has a phosphorylation enrichment of 0.995.
IKIMGYFIRTI [IDS_Y490_S491F] was tested, and the phosphorylation enrichment was 0.402.
EMFNPYFGLFE [NEDD4L_Y679_YF] was tested, and the phosphorylation enrichment was 7.38.
Work on ATPSRYMTFLH [DYNC2H1_Y2872] yielded a phosphorylation enrichment of 0.435.
For YGTAQYCCRMG [LRRK2_Y2023_I2020T], the phosphorylation enrichment was 1.01.
QKTGDYYDLYG [PTPN11_Y62_N58K] was tested, and the phosphorylation enrichment was 3.77.
With KRNSLYSFSDH [CCDC82_Y331_Q327R] the phosphorylation enrichment was 1.54.
Sequence PSQRRYVYYYS [PTEN_Y174] has a phosphorylation enrichment of 0.648.
With RNLLIYTEFGK [HGD_Y166_G161R] the phosphorylation enrichment was 8.15.
With SVGGCYEQLFV [MC4R_Y41_D37V] the phosphorylation enrichment was 0.982.
In the case of RWHEGYRQTPR [CD44_Y412_K417R], the phosphorylation enrichment is reported as 0.299.
Sequence HNLDYYKKTTN [FGFR3_Y648] has a phosphorylation enrichment of 0.653.
For TTKGAYSLSIR [YES1_Y194], the phosphorylation enrichment was 0.406.
Sequence KRRGPYEMSPS [PLPP7_Y172_T174M] has a phosphorylation enrichment of 0.387.
Work on KGEDFYCVTCP [FHL1_Y149_H154P] yielded a phosphorylation enrichment of 4.22.
TRSFKCLLLSM [NF1_Y491_Y491C_YF] was tested, and the phosphorylation enrichment was 0.474.
Work on HYPDVYAWEQL [ALX3_Y181_R183W] yielded a phosphorylation enrichment of 8.69.
Sequence EILLSYLRTGY [TGM1_Y365] has a phosphorylation enrichment of 0.524.
With QRDSSYFWEIE [RAF1_Y340_YF] the phosphorylation enrichment was 0.966.
Work on WSQAMYPDLGP [STARD8_Y330_R327Q] yielded a phosphorylation enrichment of 0.47.
AKKKMYSHKTK [AGXT_Y231_R233H] was tested, and the phosphorylation enrichment was 0.609.
In the case of GRKTLYSFFSP [UNG_Y8_Q4R], the phosphorylation enrichment is reported as 1.13.
For GSERRYSREGG [PTPRN2_Y139], the phosphorylation enrichment was 0.479.
KACKHYLTTRT [ZBTB5_Y118] was tested, and the phosphorylation enrichment was 0.505.
Sequence GQLIFYAPPEW [CNTN6_Y315] has a phosphorylation enrichment of 0.576.
IDFARYWHGDD [MMP11_Y162] gave a phosphorylation enrichment of 0.405.
VSFDEYRFRSF [CFTR_Y515_V520F_YF] gave a phosphorylation enrichment of 0.569.
For QLATEYVFSDF [PANX1_Y10], the phosphorylation enrichment was 0.762.
With YRRITYHNWRH [PDE6B_Y556] the phosphorylation enrichment was 0.525.
In the case of VTRANYFIRDE [GNAS_Y339_K338N], the phosphorylation enrichment is reported as 0.474.
With FIGRIYLFLTK [GARS1_Y414_YF] the phosphorylation enrichment was 0.567.
DKTGEYPVPLT [ACADM_Y73_I78T] showed a phosphorylation enrichment of 0.487.
KNKKDYYDMYE [SLC26A3_Y526] showed a phosphorylation enrichment of 0.601.

Each sequence was assayed on AncSZ in the same assay as above.
LKGQVYILGGE [ASS1_Y359_R363G] showed a phosphorylation enrichment of 1.33.
Work on IKIMGYFIRTI [IDS_Y490_S491F] yielded a phosphorylation enrichment of 0.932.
With EMFNPYFGLFE [NEDD4L_Y679_YF] the phosphorylation enrichment was 1.52.
With ATPSRYMTFLH [DYNC2H1_Y2872] the phosphorylation enrichment was 0.667.
YGTAQYCCRMG [LRRK2_Y2023_I2020T] was tested, and the phosphorylation enrichment was 0.719.
For QKTGDYYDLYG [PTPN11_Y62_N58K], the phosphorylation enrichment was 2.31.
Sequence KRNSLYSFSDH [CCDC82_Y331_Q327R] has a phosphorylation enrichment of 0.531.
In the case of PSQRRYVYYYS [PTEN_Y174], the phosphorylation enrichment is reported as 0.958.
Sequence RNLLIYTEFGK [HGD_Y166_G161R] has a phosphorylation enrichment of 1.4.
For SVGGCYEQLFV [MC4R_Y41_D37V], the phosphorylation enrichment was 1.51.
RWHEGYRQTPR [CD44_Y412_K417R] gave a phosphorylation enrichment of 0.645.
HNLDYYKKTTN [FGFR3_Y648] was tested, and the phosphorylation enrichment was 0.829.
In the case of TTKGAYSLSIR [YES1_Y194], the phosphorylation enrichment is reported as 0.656.
Sequence KRRGPYEMSPS [PLPP7_Y172_T174M] has a phosphorylation enrichment of 0.58.
KGEDFYCVTCP [FHL1_Y149_H154P] showed a phosphorylation enrichment of 1.47.
TRSFKCLLLSM [NF1_Y491_Y491C_YF] was tested, and the phosphorylation enrichment was 0.969.
For HYPDVYAWEQL [ALX3_Y181_R183W], the phosphorylation enrichment was 1.14.
With EILLSYLRTGY [TGM1_Y365] the phosphorylation enrichment was 1.06.
QRDSSYFWEIE [RAF1_Y340_YF] was tested, and the phosphorylation enrichment was 2.48.
WSQAMYPDLGP [STARD8_Y330_R327Q] gave a phosphorylation enrichment of 1.06.
AKKKMYSHKTK [AGXT_Y231_R233H] gave a phosphorylation enrichment of 0.961.
GRKTLYSFFSP [UNG_Y8_Q4R] showed a phosphorylation enrichment of 0.529.
For GSERRYSREGG [PTPRN2_Y139], the phosphorylation enrichment was 0.703.
KACKHYLTTRT [ZBTB5_Y118] showed a phosphorylation enrichment of 0.712.
GQLIFYAPPEW [CNTN6_Y315] showed a phosphorylation enrichment of 1.39.
For IDFARYWHGDD [MMP11_Y162], the phosphorylation enrichment was 0.81.
Work on VSFDEYRFRSF [CFTR_Y515_V520F_YF] yielded a phosphorylation enrichment of 0.903.
Work on QLATEYVFSDF [PANX1_Y10] yielded a phosphorylation enrichment of 0.996.
In the case of YRRITYHNWRH [PDE6B_Y556], the phosphorylation enrichment is reported as 0.642.
VTRANYFIRDE [GNAS_Y339_K338N] gave a phosphorylation enrichment of 0.705.
FIGRIYLFLTK [GARS1_Y414_YF] was tested, and the phosphorylation enrichment was 1.61.
Work on DKTGEYPVPLT [ACADM_Y73_I78T] yielded a phosphorylation enrichment of 0.863.
Work on KNKKDYYDMYE [SLC26A3_Y526] yielded a phosphorylation enrichment of 1.13.
